Source: patent US20200040064A1 (OHIO STATE INNOVATION FOUNDATION, published 2020)

Molecular target: T1, protein A on wild type Staphylococcus aureus newman strain bacteria (Staphylococcus aureus (newman strain), UniProt P0A015 37-419)
T1 construct: also called wt S.A; Staphylococcus aureus (wt)
Experiment: flow cytometry, labeled CD64 on wt S. aureus in the absence of rituximab

B1: fluorescently labeled human Fcγ receptor CD64 (receptor)
chain: QVDTTKAVITLQPPWVSVFQEETVTLHCEVLHLPGSSSTQWFLNGTATQTSTPSYRITSASVNDSGEYRCQRGLSGRSDPIQLEIHRGWLLLQVSSRVFTEGEPLALRCHAWKDKLVYNVLYYRNGKAFKFFHWNSNLTILKTNISHNGTYHCSGMGKHRYTSAGISVTVKELFPAPVLNASVTSPLLEGNLVTLSCETKLLLQRPGLQLYFSFYMGSKTLRGRNTSSEYQILTARREDSGLYWCEAATEDGNVLKRSPELELQVLGLQLPTP
modifications: fluorescently labeled
binding result: no binding
